Measurements published in the supplement of paper PMC11780869.

System: Bacillus subtilis
Experiment: cleaved RNA product abundance (RNA/gDNA barcode ratio) relative to median wild-type variant (ratio to wild type); higher = more accumulation of the downstream cleavage product
How it was run: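 Truncated aprE or tetM reporter mRNAs with barcoded RNase Y cleavage-site windows, mutagenized from oligos at a 9% error rate, sat in the B. subtilis chromosome. Cells grew in LB at 37°C from OD600 0.0003 to 0.3. Gel-selected cleaved RNA was reverse transcribed and its barcodes sequenced with those from genomic DNA, collapsing by UMI. Cleaved product abundance equals the RNA:gDNA barcode ratio per construct over the median construct with the unmutated site.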

[1] = experiment (reporter, strain, medium): exp 8a: truncated aprE reporter, strain BJT201 with 2% xylose (RNase J1 expressed), cleavage site: glnRA (positions -5 to +31 mutated)
[2] = experiment (reporter, strain, medium): exp 2b: truncated aprE reporter, strain BJT200, cleavage site: cggR-gapA (positions -7 to +36 mutated)
[3] = experiment (reporter, strain, medium): exp 4a: truncated aprE reporter, strain BJT201 with 2% xylose (RNase J1 expressed), cleavage site: cggR-gapA (positions -7 to +36 mutated)
[4] = experiment (reporter, strain, medium): exp 6: tetM reporter, strain 168, cleavage site: cggR-gapA (positions -7 to +36 mutated)

Sequence | cleaved RNA product abundance [1] | cleaved RNA product abundance [2] | cleaved RNA product abundance [3] | other results
CGACATGTCCCGCTTCTTTCATTAATCCGTTAGAAACTGATTTGCTATATACATTTACCTTTTAAGAGGAGGAAT | 0.194 |  |  | 
ACAGACGAAGGAGCCGCAAAGAAGTTATTAAGGGATAAATAATCCCTCTATATAAATATCTCTCACTTATTTAAA |  | 0.396 | 0.326 | 
ACAGACGAAGGAGCCGCAAAGAGGTAATTAAGGGATGAATAATCCCTCAATATAAATATCTCTCACTTATTTAAA |  |  | 0.176 | 
ACAGACGAAGGAGCCGCAAAGAAGTTATTAAGTAATAAATAATCCCTCAATATAAATATCTCTCACTTATTTAAA |  |  | 0.0519 | 
CGACATGTCCCGCTTCTTTCATTAATCCGTTAGCAACTATTTTGCCATATACATTTACCTTTTAAGAGGAGGAAT | 0.121 |  |  | 
ACAGACGAAGGAGCCGCAAACAACTTATTAAGGGATGAATAATCCCTCAATATAAATATCTCTCACTTATTTAAA |  | 0.172 |  | 
ACAGACGAAGGAGCCGCAAAGAAGTAATTAAGGGATGAATAATCCCTCAATATAATTATCTCTCACTTATTTAAA |  | 0.151 | 0.199 | 
CGACATGTCCCGCTTCTTTCATTAATCCGTTAGCAACTGTTTTCCTATAGACATTTACCTTTTAAGAGGAGGAAT | 0.36 |  |  | 
ACAGACGAAGGAGCCGCAAAGAAGTGATTAAGGGACGAATAATCCCTCAATATAAATATCTCTCACTTATTTAAA |  |  | 0.322 | 
ACAGACGAAGGAGCCGCAAAGAAGTTATTACGGGTTGAATAATCCCTCAATATAAATATCTCTCACTTATTTAAA |  | 0.087 | 0.16 | 
CGACATGTCCCGCTTCTTTCATTAATCCGTTAACAACTGTTTTGCTATATATATTTACCTTTTAAGAGGAGGAAT | 0.2 |  |  | 
ACAGACGAAGGAGCCGCAAAGAAGTTATTAAAGGATGAATGATCCCTCAATATAAATATCTCTCACTTATTTAAA |  | 0.0792 | 0.155 | 
ACAGACGAAGGAGCCGCAAAGAAGTTATTAAGGGATGAATAAACCCTAAATATAAATATCTCTCACTTATTTAAA |  |  | 0.4 | 
ACAGACGAAGGAGCCGCAATGAAGTTATTAATGGATGAATAATCCCTCAATATAAATATCTCTCACTTATTTAAA |  | 0.126 | 0.202 | 
ACAGACGAAGGAGCCGCAAAGAAGTTATTAAGGGATGCGTAATCCCTCAATATAAATATCTCTCACTTATTTAAA |  |  | 0.629 | 
ACAGACGAAGGAGCCGCAAAGAACTTATTAAAGGATGAATAATCCCTCAATATAAATATCTCTCACTTATTTAAA |  | 0.166 |  | 
ACAGACGAAGGAGCCGCAAAGAAGTTATTAAGGGATGAATAAACTCTCAATATAAATATCTCTCACTTATTTAAA |  |  | 0.14 | 
ACAGACGAAGGAGCCGCAAAGAAGTTATTAAGGGATGAAGAATCCATCAATATAAATATCTCTCACTTATTTAAA |  | 0.124 |  | 
CGACATGTCCCGCTTCTTTCATTAATCCGTTAGCAACTGTTTTGCTATATACATTAACTTTTTAAGAGGAGGAAT | 1.71 |  |  | 
CGACATGTCCCGCTTCTTTCATTAATCCCGTTAGCAACTGTTTTGCTATATACATTTACCTTTTAAGAGGAGGAA | 1.01 |  |  | 

Sequence | cleaved RNA product abundance [1] | cleaved RNA product abundance [2] | cleaved RNA product abundance [3] | other results
ACAGACGAAGGAGCCGCAAAGAAGTTATTAAGGGATGAATAATACCTCAATATTAATATCTCTCACTTATTTAAA |  | 0.0803 | 0.0425 | cleaved RNA product abundance [4]: 0.0694
CGACATGTCCCGCTTCTTTCATTAATCCGTTTACAACTGTTTTGCTATATACATTTACCTTTTAAGAGGAGGAAT | 0.276 |  |  | 
CGACATGTCCCGCTTCTTTCATTAATACGTTAGCAACTGTTTTGCTATATACGTTTACCTTTTAAGAGGAGGAAT | 0.284 |  |  | 
ACAGACGAAGGAGCCGCAATGAAGTTATTAAGGGATGAATAATCCCTCAATATAAAAATCTCTCACTTATTTAAA |  | 0.872 | 1.03 | 
CGACATGTCCCGCTTCTTTCATTAATCCGTTAGCAACTGTTTTGCTATATACATTTAGCTTTTAAGAGGAGGAAT | 1.07 |  |  | 
CGACATGTCCCGCTTCTTTCATTAATCCGTTAGCAACTGTTCTGCTATATACATGTACCTTTTAAGAGGAGGAAT | 0.386 |  |  | 
ACAGACGAAGGAGCCGCAAAGAAGTTATTAAGGGATGAATAATTCCTCATTATAAATATCTCTCACTTATTTAAA |  | 0.177 | 0.306 | 
ACAGACGAAGGAGCCGCAAAGGAGTTATTAAGGGATGACTAATCCCTCAATATAAATATCTCTCACTTATTTAAA |  | 0.423 | 0.596 | 
CGACATGTCCCGCTTCTTTCATTAATCCGTTAGCAACTGTATTGCTATATACATGTACCTTTTAAGAGGAGGAAT | 0.783 |  |  | 
ACAGACGAAGGAGCCGCAAAGAAGTTATTAGGGGATGAATAATCCCTTAATATAAATATCTCTCACTTATTTAAA |  |  | 0.808 | 
ACAGACGAAGGAGCCGCAAAGAACTTAATAAGGGATGAATAATCCCTCAATATAAATATCTCTCACTTATTTAAA |  |  | 0.167 | 
ACAGACGAAGGAGCCGCAAAGAAGTTATTAAGGGATGAATAACCCCTCAATATAAATATCTCTCACTTATTTAAA |  | 0.56 | 0.609 | cleaved RNA product abundance [4]: 0.408
ACAGACGAAGGAGCCGCAAAGAAGTTATAATGGGATGAATAATCCCTCAATATAAATATCTCTCACTTATTTAAA |  | 0.29 | 0.293 | 
ACAGACGAAGGAGCCGCAAAGAAGTTATTAAGGGATGAATACTACCTCAATATAAATATCTCTCACTTATTTAAA |  | 0.124 | 0.168 | 
ACAGACGAAGGAGCCGCAAAGAAGTTATTAAGGGATGAATAATCTCTCAACATAAATATCTCTCACTTATTTAAA |  |  | 0.156 | 
CGACATGTCCCGCTTCTTTCATTAATCCGTTAGCAACTATTTTGTTATATACATTTACCTTTTAAGAGGAGGAAT | 0.578 |  |  | 
CGACATGTCCCGCTTCTTTCATTAATCCGTGAGCAACTGTTTTGCTATATACATTTACTTTTTAAGAGGAGGAAT | 0.477 |  |  | 
CGACATGTCCCGCTTCTTTCATTATTCCCTTAGCAACTGTTTTGCTATATACATTTACCTTTTAAGAGGAGGAAT | 0.221 |  |  | 
CGACATGTCCCGCTTCTTTCATTAGTCCGTTAGCAACTGTTTTGCTATATATATTTACCTTTTAAGAGGAGGAAT | 0.842 |  |  | 
ACAGACGAAGGAGCCGCAAAGAAGTTATGAAGGGATAAATAATCCCTCAATATAAATATCTCTCACTTATTTAAA |  | 0.349 | 0.542 | 

Sequence | cleaved RNA product abundance [1] | cleaved RNA product abundance [2] | cleaved RNA product abundance [3] | other results
ACAGACGAAGGAGCCGCAAAGAAGTTATTAAGGGATGAATAATCCCACAATATACATATCTCTCACTTATTTAAA |  |  | 0.249 | 
CGACATGTCCCGCTTCTTTCATTAATCCGTTAGCAACTATTTTGCTATATACAATTACCTTTTAAGAGGAGGAAT | 1.98 |  |  | 
CGACATGTCCCGCTTCTTTCATTAATCCTTTAGCAACTGTTTTGCTATATACATTTCCCTTTTAAGAGGAGGAAT | 0.343 |  |  | 
ACAGACGAAGGAGCCGCAAAGAAGTTATTAAGGAATGAAAAATCCCTCAATATAAATATCTCTCACTTATTTAAA |  | 0.0892 | 0.137 | 
ACAGACGAAGGAGCCGCAAAGAAGTTATTAAGCGATGCATAATCCCTCAATATAAATATCTCTCACTTATTTAAA |  |  | 0.125 | 
CGACATGTCCCGCTTCTTTCATTAATTCGTTAGCAACTATTTTGCTATATACATTTACCTTTTAAGAGGAGGAAT | 1.64 |  |  | 
CGACATGTCCCGCTTCTTTCATTATTCCGTTAGCAACTGTTTTGCTATATACATTTACCCTTTAAGAGGAGGAAT | 0.558 |  |  | 
ACAGACGAAGGAGCCGCAAAGAAGTTATTCAGCGATGAATAATCCCTCAATATAAATATCTCTCACTTATTTAAA |  |  | 0.0886 | 
ACAGACGAAGGAGCCGCAAAGAAGTTATTTAGGGATGAATAATCCCTCAATATAATTATCTCTCACTTATTTAAA |  |  | 0.52 | 
ACAGACGAAGGAGCCGCAAAGAAGTTATTAAAGGATGAATAATCCCCTCAATATAAATATCTCTCACTTATTTAA |  |  | 0.159 | 
ACAGACGAAGGAGCCGCAAAGAAGTTATTAAGGAATGAAGAATCCCTCAATATAAATATCTCTCACTTATTTAAA |  | 0.0952 | 0.17 | 
ACAGACGAAGGAGCCGCAAAGAAGTTATTAAGGAATGAATAATTCCTCAATATAAATATCTCTCACTTATTTAAA |  | 0.756 | 0.872 | 
ACAGACGAAGGAGCCGCTAAGAAGTTATTAAGGGATGAATAATCCCCCAATATAAATATCTCTCACTTATTTAAA |  |  | 0.342 | 
ACAGACGAAGGAGCCGCAAAGAAGCTATTAAGGGATGAATAATCCCTCAATTTAAATATCTCTCACTTATTTAAA |  |  | 0.0606 | 
ACAGACGAAGGAGCCGCAAAGAAATTATTAAGGGATGAAAAATCCCTCAATATAAATATCTCTCACTTATTTAAA |  | 0.852 | 0.598 | 
ACAGACGAAGGAGCCGCAAAGAAGTTATTAAAGGATGAATAATCCCTCAGTATAAATATCTCTCACTTATTTAAA |  |  | 0.122 | 
ACAGACGAAGGAGCCGCAAAGAAGTTGTTAAAGGATGAATAATCCCTCAATATAAATATCTCTCACTTATTTAAA |  |  | 0.0874 | 
ACAGACGAAGGAGCCGCAAATACGTTATTAAGGGATGAATAATCCCTCAATATAAATATCTCTCACTTATTTAAA |  |  | 0.984 | 
ACAGACGAAGGAGCCGCAAAGAAGTTATTAAGGGATGAGTAATTCCTCAATATAAATATCTCTCACTTATTTAAA |  |  | 0.452 | 
CGACATGTCCCGCTTCTTTCATTAATCCGTTAGCAACTGTTTTTCAATATACATTTACCTTTTAAGAGGAGGAAT | 0.551 |  |  | 
